Test results as given in patent publication US20090281035A1.

Target: CD94-NKG2A-mFc singlechain (human)
Experiment: SPR, scCD94/NKG2A chip saturated with humZ270 10 µg/ml, then HLA-E tetramer 8 µg/ml (competitor: HLA-E tetramer)

CD94-NKG2A-mFc singlechain (human), sequence (chain, as listed by the source): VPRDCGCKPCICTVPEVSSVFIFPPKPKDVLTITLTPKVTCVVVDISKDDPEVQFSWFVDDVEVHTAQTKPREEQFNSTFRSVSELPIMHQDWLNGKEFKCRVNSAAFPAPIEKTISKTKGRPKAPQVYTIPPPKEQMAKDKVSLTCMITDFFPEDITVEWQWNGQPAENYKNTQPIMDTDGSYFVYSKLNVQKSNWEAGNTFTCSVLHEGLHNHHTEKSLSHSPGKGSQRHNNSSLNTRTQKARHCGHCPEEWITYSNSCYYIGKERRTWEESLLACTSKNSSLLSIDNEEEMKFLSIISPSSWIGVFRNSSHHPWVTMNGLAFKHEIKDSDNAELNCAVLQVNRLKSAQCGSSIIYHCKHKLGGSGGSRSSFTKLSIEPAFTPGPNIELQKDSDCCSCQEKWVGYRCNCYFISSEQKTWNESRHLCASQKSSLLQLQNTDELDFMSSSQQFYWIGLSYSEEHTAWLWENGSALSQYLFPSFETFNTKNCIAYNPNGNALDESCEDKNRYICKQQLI

percentage of inhibition of HLA-E tetramer binding: 81.8%
Substance: humZ270 (antibody)
